The labels stand for the following.
B1: TRIM55 (parent)
chain: YLPTRGGTTMASGGRFRCPSCRHE
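Note: lentivirally expressed fusions sorted by FACS into six bins by GFP to DsRed ratio, PSI derived from sequencing read proportions per bin multiplied by bin number.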

In this series the parent is B1. Kind of series: protein stability index of a GFP-peptide fusion (GPS, HEK-293T) (PSI 1-6); higher = more stable. The settings on record: c terminus: a fixed tail appended.
Turning to YLPTRGGTTMASGGRFRCPSCRPE [H23P], the protein stability index amounted to 3.14.

Turning to YLPQRGGTTMASGGRFRCPSCRHE [T4Q], the protein stability index was found to be 1.7.

Turning to YLPMRGGTTMASGGRFRCPSCRHE [T4M], the protein stability index was found to be 1.26.

Turning to YLPWRGGTTMASGGRFRCPSCRHE [T4W], the protein stability index was 1.

On to YLPLRGGTTMASGGRFRCPSCRHE [T4L], for which the protein stability index was 2.73.

YLPCRGGTTMASGGRFRCPSCRHE [T4C]: the protein stability index turned out to be 3.98.

On to YLPTRGGTTMASGGRFRCNSCRHE [P19N], for which the protein stability index is 2.6.

YLPTRGGTTMASGGRFRCSSCRHE [P19S]: the protein stability index came out at 2.49.

With YLPTRGGTTMASGGRFRCRSCRHE [P19R], the protein stability index was 2.78.

In the case of YLPTRGGTTMASGGRFRCGSCRHE [P19G], the protein stability index was 2.34.

Consider YLPTRGGTTMASGGRFRCTSCRHE [P19T], for which the protein stability index came to 2.18.

On to YLPTRGGTTMASGGRFRCESCRHE [P19E], for which the protein stability index amounted to 2.01.

In the case of YLPTRGGTTMASGGRFRCQSCRHE [P19Q], the protein stability index amounted to 3.5.

In the case of YLPTRGGTTMASGGRFRCPHCRHE [S20H], the protein stability index was 2.13.

For YLPTRGGTTMASGGRFRCPNCRHE [S20N], the protein stability index stood at 1.93.

Turning to YLPTRGGTTMASGGRFRCPLCRHE [S20L], the protein stability index came out at 2.09.

In the case of YLPTRGGTTMASGGRFRCPECRHE [S20E], the protein stability index was determined as 2.01.

YLPTRGGTTMASGGRFRCPMCRHE [S20M]: the protein stability index was determined as 1.04.

Take YLPTRGGTTMASGGRFRCPYCRHE [S20Y]: the protein stability index was 1.46.

Regarding YLPTRGGTTMASGGRFRCPQCRHE [S20Q], the protein stability index is 1.8.

As to YLPTRGGTFMASGGRFRCPSCRHE [T9F], the protein stability index was found to be 2.12.

With YLPTRGGTMMASGGRFRCPSCRHE [T9M], the protein stability index stood at 1.36.

In the case of YLPTRGGTRMASGGRFRCPSCRHE [T9R], the protein stability index amounted to 1.82.

As for YLPTRGGTPMASGGRFRCPSCRHE [T9P], the protein stability index is 2.49.

For the variant YLPTRGGTAMASGGRFRCPSCRHE [T9A], the protein stability index was found to be 2.77.

On to YLPTRGGTNMASGGRFRCPSCRHE [T9N], for which the protein stability index amounted to 2.01.

Regarding YLPTRGGTQMASGGRFRCPSCRHE [T9Q], the protein stability index was 1.11.

For YLPTAGGTTMASGGRFRCPSCRHE [R5A], the protein stability index amounted to 1.87.

In the case of YLPTRGGTTMADGGRFRCPSCRHE [S12D], the protein stability index came out at 1.34.

For the variant YLPTRGGTTMAPGGRFRCPSCRHE [S12P], the protein stability index worked out at 2.32.

Turning to YLPTRGGTTMASGLRFRCPSCRHE [G14L], the protein stability index was 1.29.

Regarding YLPTRGGTTMASGQRFRCPSCRHE [G14Q], the protein stability index was determined as 1.26.

For YLPTRGGTTMASGFRFRCPSCRHE [G14F], the protein stability index was found to be 2.04.

As for YLPTRGGTTMASGNRFRCPSCRHE [G14N], the protein stability index is 2.42.

Turning to YLNTRGGTTMASGGRFRCPSCRHE [P3N], the protein stability index worked out at 2.29.

In the case of YLETRGGTTMASGGRFRCPSCRHE [P3E], the protein stability index is 1.

Consider YLVTRGGTTMASGGRFRCPSCRHE [P3V], for which the protein stability index stood at 1.97.

Regarding YLPTRGGTTMASGGRFRCPSCRHD [E24D], the protein stability index turned out to be 1.93.

Turning to YLPTRGGTTMASGGRFRCPSCRHA [E24A], the protein stability index stood at 1.59.

As for YLPTRGGTTMASGGRFRCPSCRHQ [E24Q], the protein stability index amounted to 3.06.

Turning to YLPTRGGTTMASGGRFRCPSCRHT [E24T], the protein stability index is 1.78.

For YLPTRGGTTMASGGRFRCPSCRHV [E24V], the protein stability index amounted to 2.29.

Turning to YLPTRGGTTMASGGRFRCPSCRHI [E24I], the protein stability index came to 1.41.

Consider YLPTRGGTTMASGGRFRCPSCRHL [E24L], for which the protein stability index came to 1.57.

As for YLPTRGGTTMASGGRFRCPSCRHC [E24C], the protein stability index turned out to be 2.07.

For the variant YLPTRGGTTMASGGRFRCPSCRHP [E24P], the protein stability index was determined as 2.29.

Turning to YLPTRGGTTMASGGRFRCPSCRHG [E24G], the protein stability index worked out at 1.06.

Turning to YLPTRGGTTMASEGRFRCPSCRHE [G13E], the protein stability index amounted to 2.25.

Turning to YLPTRGGTTMASDGRFRCPSCRHE [G13D], the protein stability index is 2.37.

As for YLPTRGGTTMASQGRFRCPSCRHE [G13Q], the protein stability index was 1.51.

For YLPTRGGTTMASPGRFRCPSCRHE [G13P], the protein stability index amounted to 1.44.

Turning to YLPTRGGTTEASGGRFRCPSCRHE [M10E], the protein stability index stood at 1.97.

Take YLPTRGGTTTASGGRFRCPSCRHE [M10T]: the protein stability index was 4.08.

As for YLPTRGGTTVASGGRFRCPSCRHE [M10V], the protein stability index turned out to be 1.65.

For YLPTRGGTTPASGGRFRCPSCRHE [M10P], the protein stability index is 2.5.

In the case of YLPTRGGTTNASGGRFRCPSCRHE [M10N], the protein stability index was found to be 1.96.

Consider YLPTRGGTTMASGGRFRCPSCFHE [R22F], for which the protein stability index was found to be 2.38.

YLPTRGGTTMASGGRFRCPSCVHE [R22V]: the protein stability index came out at 2.25.

As to YLPTRGGTTMASGGRFRCPSCSHE [R22S], the protein stability index was determined as 3.2.

YLPTRGGTTMASGGRFRCPSCCHE [R22C]: the protein stability index came to 1.97.

As for YLPTRGGTTMASGGRFRCPSCGHE [R22G], the protein stability index is 2.79.

YLPTRGGTTMASGGRFRCPSHRHE [C21H]: the protein stability index came to 3.

Consider YLPTRGGTTMASGGRFRCPSYRHE [C21Y], for which the protein stability index was determined as 2.35.

For YLPTRGGTTMASGGRFRCPSSRHE [C21S], the protein stability index was found to be 3.03.

On to YLPTRGGTTMASGGRFRCPSTRHE [C21T], for which the protein stability index was 3.14.

As to YLPTRGGTTMASGGRFRCPSERHE [C21E], the protein stability index is 4.03.

YLPTRGGTTMASGGKFRCPSCRHE [R15K]: the protein stability index turned out to be 2.05.

On to YLPTRGGTTMASGGPFRCPSCRHE [R15P], for which the protein stability index amounted to 1.49.

Take YLPTRGGTTMASGGDFRCPSCRHE [R15D]: the protein stability index is 2.78.

Regarding YLPTRGGTTMASGGFFRCPSCRHE [R15F], the protein stability index worked out at 2.76.

Take YLPTRGGTTMASGGMFRCPSCRHE [R15M]: the protein stability index worked out at 1.31.

As to YLPTRGGTTMASGGEFRCPSCRHE [R15E], the protein stability index is 2.35.

For the variant YLPTRGGTTMASGGLFRCPSCRHE [R15L], the protein stability index stood at 1.81.

As for YLPTRGGCTMASGGRFRCPSCRHE [T8C], the protein stability index was found to be 3.19.

As for YLPTRGGKTMASGGRFRCPSCRHE [T8K], the protein stability index stood at 2.1.

Consider YLPTRLGTTMASGGRFRCPSCRHE [G6L], for which the protein stability index was 1.76.

As to YLPTRCGTTMASGGRFRCPSCRHE [G6C], the protein stability index is 1.84.

For the variant YLPTRIGTTMASGGRFRCPSCRHE [G6I], the protein stability index was 1.04.

Consider YKPTRGGTTMASGGRFRCPSCRHE [L2K], for which the protein stability index came to 1.32.

In the case of YRPTRGGTTMASGGRFRCPSCRHE [L2R], the protein stability index was 1.77.

For the variant YWPTRGGTTMASGGRFRCPSCRHE [L2W], the protein stability index was determined as 2.7.

Turning to YPPTRGGTTMASGGRFRCPSCRHE [L2P], the protein stability index amounted to 1.71.

Regarding YLPTRGFTTMASGGRFRCPSCRHE [G7F], the protein stability index came out at 1.26.

As for YLPTRGPTTMASGGRFRCPSCRHE [G7P], the protein stability index amounted to 2.91.

Turning to YLPTRGITTMASGGRFRCPSCRHE [G7I], the protein stability index was 1.45.

For YLPTRGATTMASGGRFRCPSCRHE [G7A], the protein stability index is 1.64.

Take YLPTRGYTTMASGGRFRCPSCRHE [G7Y]: the protein stability index stood at 2.17.

Turning to YLPTRGWTTMASGGRFRCPSCRHE [G7W], the protein stability index came to 1.5.

With YLPTRGLTTMASGGRFRCPSCRHE [G7L], the protein stability index is 1.34.

Consider YLPTRGGTTMISGGRFRCPSCRHE [A11I], for which the protein stability index is 1.05.

Take YLPTRGGTTMYSGGRFRCPSCRHE [A11Y]: the protein stability index was 3.34.

For YLPTRGGTTMESGGRFRCPSCRHE [A11E], the protein stability index was 2.

In the case of YLPTRGGTTMKSGGRFRCPSCRHE [A11K], the protein stability index is 1.36.

With YLPTRGGTTMFSGGRFRCPSCRHE [A11F], the protein stability index worked out at 1.98.

In the case of YLPTRGGTTMNSGGRFRCPSCRHE [A11N], the protein stability index was found to be 1.65.

The values above are taken from the supplement of paper PMC10567573.
